Target: LOXL3 (UniProt P58215)
Assay: Co-IP of LOXL3 with LOXL3
Conditions: reference: wild type; sites S704

Chain of UniProt P58215 (P58215 whole entry S704A): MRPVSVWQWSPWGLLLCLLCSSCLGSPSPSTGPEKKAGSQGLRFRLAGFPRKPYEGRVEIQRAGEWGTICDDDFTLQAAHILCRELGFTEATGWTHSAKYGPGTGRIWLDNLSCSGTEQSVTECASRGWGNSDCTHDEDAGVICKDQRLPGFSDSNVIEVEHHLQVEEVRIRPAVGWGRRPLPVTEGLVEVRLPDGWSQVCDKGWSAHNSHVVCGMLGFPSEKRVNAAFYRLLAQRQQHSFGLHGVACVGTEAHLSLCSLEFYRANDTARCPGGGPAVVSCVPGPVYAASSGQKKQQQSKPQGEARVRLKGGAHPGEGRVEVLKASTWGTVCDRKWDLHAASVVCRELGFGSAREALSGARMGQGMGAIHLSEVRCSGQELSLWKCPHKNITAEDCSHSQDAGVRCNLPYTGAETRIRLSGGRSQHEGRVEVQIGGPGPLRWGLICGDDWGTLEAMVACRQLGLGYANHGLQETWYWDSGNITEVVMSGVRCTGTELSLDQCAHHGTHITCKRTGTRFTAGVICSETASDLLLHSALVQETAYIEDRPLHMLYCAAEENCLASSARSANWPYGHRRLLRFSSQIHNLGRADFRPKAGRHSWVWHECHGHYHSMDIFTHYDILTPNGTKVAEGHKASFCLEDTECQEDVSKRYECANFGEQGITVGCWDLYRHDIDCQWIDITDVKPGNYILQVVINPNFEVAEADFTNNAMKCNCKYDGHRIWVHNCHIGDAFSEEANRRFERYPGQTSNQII

Substance: LOXL3 (from UniProt P58215) S704A
- binding against the reference: weaker
